# Laboratory results reported in publication doi:10.1101/2025.05.02.651858, “Structural basis of unidirectional DNA recombination by the ϕC31 serine integrase” (bioRxiv, 2025).
# B1: ϕC31 integrase S12A (cleavage-deficient mutant, full length) (enzyme, Streptomyces phage ϕC31, UniProt Q9T221 1-605, looked up)
# chain: MDTYAGAYDRQARERENSSAASPATQRSANEDKAADLQREVERDGGRFRFVGHFSEAPGTSAFGTAERPEFERILNECRAGRLNMIIVYDVSRFSRLKVMDAIPIVSELLALGVTIVSTQEGVFRQGNVMDLIHLIMRLDASHKESSLKSAKILDTKNLQRELGGYVGGKAPYGFELVSETKEITRNGRMVNVVINKLAHSTTPLTGPFEFEPDVIRWWWREIKTHKHLPFKPGSQAAIHPGSITGLCKRMDADAVPTRGETIGKKTASSAWDPATVMRILRDPRIAGFAAEVIYKKKPDGTPTTKIEGYRIQRDPITLRPVELDCGPIIEPAEWYELQAWLDGRGRGKGLSRGQAILSAMDKLYCECGAVMTSKRGEESIKDSYRCRRRKVVDPSAPGQHEGTCNVSMAALDKFVAERIFNKIRHAEGDEETLALLWEAARRFGKLTEAPEKSGERANLVAERADALNALEELYEDRAAGAYDGPVGRKHFRKQQAALTLRQQGAEERLAELEAAEAPKLPLDQWFPEDADADPTGPKSWWGRASVDDKRVFVGLFVDKIVVTKSTTGRGQGTPIEKRASITWAKPPTDDDEDDAQDGTEDVAA
# notes: ϕC31 integrase, Streptomyces phage ϕC31, UniProt Q9T221, 605-amino acid polypeptide chain, with S12A; also called full-length S12A integrase; source: E. coli BL21 (DE3) LOBSTR, pET28a, purified (HisTrap Ni-NTA, Superose 6 SEC)
# B2: ϕC31 integrase (wild type) (enzyme, Streptomyces phage ϕC31, UniProt Q9T221 1-605, looked up)
# chain: MDTYAGAYDRQSRERENSSAASPATQRSANEDKAADLQREVERDGGRFRFVGHFSEAPGTSAFGTAERPEFERILNECRAGRLNMIIVYDVSRFSRLKVMDAIPIVSELLALGVTIVSTQEGVFRQGNVMDLIHLIMRLDASHKESSLKSAKILDTKNLQRELGGYVGGKAPYGFELVSETKEITRNGRMVNVVINKLAHSTTPLTGPFEFEPDVIRWWWREIKTHKHLPFKPGSQAAIHPGSITGLCKRMDADAVPTRGETIGKKTASSAWDPATVMRILRDPRIAGFAAEVIYKKKPDGTPTTKIEGYRIQRDPITLRPVELDCGPIIEPAEWYELQAWLDGRGRGKGLSRGQAILSAMDKLYCECGAVMTSKRGEESIKDSYRCRRRKVVDPSAPGQHEGTCNVSMAALDKFVAERIFNKIRHAEGDEETLALLWEAARRFGKLTEAPEKSGERANLVAERADALNALEELYEDRAAGAYDGPVGRKHFRKQQAALTLRQQGAEERLAELEAAEAPKLPLDQWFPEDADADPTGPKSWWGRASVDDKRVFVGLFVDKIVVTKSTTGRGQGTPIEKRASITWAKPPTDDDEDDAQDGTEDVAA
# notes: ϕC31 integrase, Streptomyces phage ϕC31, UniProt Q9T221, 605-amino acid polypeptide chain; Used only for the integrase–attL cryo-EM complex (dimer on attL60 DNA); also called WT integrase; source: E. coli BL21 (DE3) LOBSTR, pET28a, purified (HisTrap Ni-NTA, Superose 6 SEC)
# B3: ϕC31 integrase S12A/E449K (enzyme, Streptomyces phage ϕC31, UniProt Q9T221 1-605, looked up)
# chain: MDTYAGAYDRQARERENSSAASPATQRSANEDKAADLQREVERDGGRFRFVGHFSEAPGTSAFGTAERPEFERILNECRAGRLNMIIVYDVSRFSRLKVMDAIPIVSELLALGVTIVSTQEGVFRQGNVMDLIHLIMRLDASHKESSLKSAKILDTKNLQRELGGYVGGKAPYGFELVSETKEITRNGRMVNVVINKLAHSTTPLTGPFEFEPDVIRWWWREIKTHKHLPFKPGSQAAIHPGSITGLCKRMDADAVPTRGETIGKKTASSAWDPATVMRILRDPRIAGFAAEVIYKKKPDGTPTTKIEGYRIQRDPITLRPVELDCGPIIEPAEWYELQAWLDGRGRGKGLSRGQAILSAMDKLYCECGAVMTSKRGEESIKDSYRCRRRKVVDPSAPGQHEGTCNVSMAALDKFVAERIFNKIRHAEGDEETLALLWEAARRFGKLTKAPEKSGERANLVAERADALNALEELYEDRAAGAYDGPVGRKHFRKQQAALTLRQQGAEERLAELEAAEAPKLPLDQWFPEDADADPTGPKSWWGRASVDDKRVFVGLFVDKIVVTKSTTGRGQGTPIEKRASITWAKPPTDDDEDDAQDGTEDVAA
# notes: ϕC31 integrase, UniProt Q9T221, with S12A and E449K; also called S12A/E449K double mutant; source: E. coli BL21 (DE3) LOBSTR, pET28a, purified (HisTrap Ni-NTA, Superose 6 SEC)
# B4: ϕC31 Recombination Directionality Factor (RDF), gp3 (natural protein, Streptomyces phage ϕC31, UniProt Q9T216 1-244, looked up)
# chain: MAKRSIWAGDEDNKPKKRETYADDTVGRFHSGYSETNERGKVVPVALDKWRISTGEQSVADAVAQLFGGTPVENEESTSENFIDVFTDRPKVPVIIEADGIHWDMKLWLNGKLKHHCDGFDFVSHADEEMIGQPCGCPKLFDERKAAAKEYDAPNPAITVTFTLADDPELGRFKFQTGSWTLFKVLHEAEDDVERVGKGGAVLANLELELVEYTPKRGPMRNKLVSYYKPTITVLKSYNDAIAD
# notes: RDF gp3 protein of Streptomyces phage ϕC31, UniProt Q9T216; residues 23–239 were modelled in the cryo-EM structure; In the excisive synaptic complex structure the RDF stood as the C-terminal part of the fusion protein m9, not as the separate His-tagged protein; source: E. coli BL21 (DE3) LOBSTR, pET28a, purified (HisTrap Ni-NTA, Superdex 200 SEC)
# B5: ϕC31 integrase ΔNTD (residues 1–140 deleted) (domain or fragment, Streptomyces phage ϕC31, UniProt Q9T221 141-605, looked up)
# chain: ASHKESSLKSAKILDTKNLQRELGGYVGGKAPYGFELVSETKEITRNGRMVNVVINKLAHSTTPLTGPFEFEPDVIRWWWREIKTHKHLPFKPGSQAAIHPGSITGLCKRMDADAVPTRGETIGKKTASSAWDPATVMRILRDPRIAGFAAEVIYKKKPDGTPTTKIEGYRIQRDPITLRPVELDCGPIIEPAEWYELQAWLDGRGRGKGLSRGQAILSAMDKLYCECGAVMTSKRGEESIKDSYRCRRRKVVDPSAPGQHEGTCNVSMAALDKFVAERIFNKIRHAEGDEETLALLWEAARRFGKLTEAPEKSGERANLVAERADALNALEELYEDRAAGAYDGPVGRKHFRKQQAALTLRQQGAEERLAELEAAEAPKLPLDQWFPEDADADPTGPKSWWGRASVDDKRVFVGLFVDKIVVTKSTTGRGQGTPIEKRASITWAKPPTDDDEDDAQDGTEDVAA
# notes: ϕC31 integrase, UniProt Q9T221, residues 1–140 deleted from the 605-amino acid chain; source: E. coli BL21 (DE3) LOBSTR, pET28a, purified (HisTrap Ni-NTA, Superose 6 SEC)
# Assays:
# [1] = biological target: the molecule itself; assay: SEC-MALS; SEC-MALLS of equal amounts of purified integrase–attB and integrase–attP complexes mixed; step: two dimer–att complexes to the tetramer–attB–attP synaptic complex; Superose 6 increase 10/300, 20 mM HEPES pH 7.4, 150 mM NaCl, 2 mM MgCl2, 0.1 mM TCEP, 25 °C
# [2] = biological target: the molecule itself; assay: cryo-EM structure; WT integrase–attL60 dimer complex, without RDF; 20 mM HEPES pH 7.4, 150 mM NaCl, 2 mM MgCl2, 0.1 mM TCEP; 0.4 mg/ml
# [3] = biological target: the molecule itself; assay: SEC-MALS; SEC-MALLS of integrase–attL complexes, without RDF; step: dimer–attL to attL–attL synaptic complex; Superose 6 increase 10/300, 20 mM HEPES pH 7.4, 150 mM NaCl, 2 mM MgCl2, 0.1 mM TCEP, 25 °C
# [4] = biological target: B1; assay: SEC-MALS; SEC-MALLS with SDS-PAGE of the peaks: pre-formed integrase S12A–attB–attP synaptic complex mixed with RDF at 1:3 integrase:RDF molar ratio, 5 min room temperature; Superose 6 increase 10/300, 20 mM HEPES pH 7.4, 150 mM NaCl, 2 mM MgCl2, 0.1 mM TCEP, 25 °C; details: both partners purified
binder,measurement,setting,value
B1,stoichiometry N,[1],4
B2,binding result,[2],binds
B3,binding result,[3],binds
B4,binding result,[4],binds
B5,binding result,[1],binds
